Values belong to the substance of their own block, whether it stands above or below them.
Columns and labels:
[1] = target: inactive human 80S ribosome (human (endogenous in MCF7)) (UniProt P18124); experiment: cryo-EM structure
[2] = target: large 60S ribosomal subunit (human (endogenous in MCF7)) (UniProt P30050); experiment: co-sedimentation
[3] = target: large 60S ribosomal subunit (human (endogenous in MCF7)) (UniProt P30050); experiment: cryo-EM structure

Substance: IFRD2 (from UniProt Q12894 1-442) (natural protein)
- percent of 80S ribosomes with IFRD2 (arsenite-treated cells) [1]: 13%
- percent of 80S ribosomes with IFRD2 (untreated cells) [1]: 16.9%

Substance: LYAR (from UniProt Q9NX58 1-379) (natural protein)
- percent of 80S ribosomes with LYAR (arsenite-treated cells) [1]: 15.5%
- percent of 80S ribosomes with LYAR (untreated cells) [1]: 13.2%

- stoichiometry N (eIF6 : large subunit proteins) [2]: 1
- percent of 60S subunits with eIF6 (untreated cells) [3]: 30%
Substance: eIF6 (from UniProt P56537 1-245) (natural protein)
